Experimental data published in US20220162291A1 (DUKE UNIVERSITY, published 2022).
Numbering of substitutions follows the chain as printed.

B1: 33B8 (antibody, V domains shown)
VH: EVKLVESGGGLVQPGGSLSLSCATSGFTFTDYYMNWVRQPPGKALEWLGFIRNKANGYTTEYSASVKGRFTISRDNSQSILYLQMNSLRAEDSATYYCACGNYVGYAMDYWGQGTSVTVSS
VL: DIVMSQSPSSLAVSAGEKVTMSCKSSQSLLNSRTRKNYLAWYQQKPGQSPKLLIYWASTRESGVPDRFTGSGSGTDFTLTISSVQAEDLAVYYCKQSYNLYTFGGGTKLEIKR
notes: Recombinant mouse IgG (made as IgG1 and IgG2c)
B2: 22D10 (antibody, V domains shown)
VH: DVQLQESGPALVKPSQTVSLTCTVTGYSITNGNHWWNWIRQVSGSKLEWLGYIRSSGSSDSNPSLKSRISITRDTSKNQLFLHLNSMTTEDIATYYCARGGGLRHYFDYWGQGTTLTVSS
VL: DIQMTQSPASLSASVGDTVTITCRASGNIHNYLAWYHQKQGKSPQLLVYHAETLTDGVPSRFSGSGSGTQYSLKINSLQPEDFGSYYCQHFWSTPYTFGGGTKLEIKR
notes: as for B1
B3: HSV010-28 (antibody, V domains shown)
VH: QIQLVQSGPELKKPGETVKISCKASGYTFTTYGMSWVKQAPGKGLKWMGWINTYSGVSTYADDFKGRFAFSLETSASTAYLQINNLKNEDTATYFCAQVNYAMDYWGQGTSVTVSS
VL: DIVMTQSHKFLSTSVGDWVTITCKASQDVSTAVAWFQQKPGQSPKVLIYSASYRYTGVPDRFTGSGSGTDFTFTISSVQAEDLAVYYCQQHYSTPRTFGGGTKLEIKR
notes: Mouse monoclonal IgG
B4: HSV010-7 (antibody, V domains shown)
VH: QVQLQQSGPELVKPGASVKLSCKASGYTFTNYDINWVKQRPGQGLEWIGWIYPRDGSTKYNEKFKGKATLTIDTSSSTAYMELHSLTSEDSAVYFCARGIFYVNYDVYWGQGTLVTVSA
VL: DIQMTQSSSFLSVSLGGRVTITCKASDHINNWLAWYQQKPGHAPRLLISGAASLETGVPSRFSGSGSGKDYTLTITSLQTEDVATYYCQQYWSSPLTFGGGTKLELKR
notes: Mouse monoclonal IgG
B5: HSV010-34 (antibody, V domains shown)
VH: EVQLVESGGGLVQPGESLKLSCESNEYEFPSHDMSWVRKTPEKRLELVAAINSDGGSTYYPDTMERRFIISRDNTKKTLYLQMSSLRSEDTALYYCARHSSGYVLDYWGQGTSVTVSS
VL: B4 VL with F10Y, N31H, H42N, A52T, T74S, T76A, S94T, L96Y, L106I
notes: Mouse monoclonal IgG
B6: HSV010-4 (antibody, V domains shown)
VH: QVQLKESGPGLVAPSQSLSITCTVSGFSLSRHDVSWVRQPPGKGLEWLGVIWGDGSTNYHSALISRLSISKDNSKSQVFLKLNSLQNDDTATYYCAKEDYGIFPYWGQGTLVTVSA
VL: DIKMTQSPSSMYASLGEKVTITCKASQDISSYLSWFQQKPGKSPKTLIYRANRLVDGVPSRFSGSGSGQDYSLSISSLDYEDMGIYYCLQYDEFPLTFGAGTKLELKR
notes: Mouse monoclonal IgG

Target: T1, glycoprotein B of HSV-1 (gB-1) (HSV-1, UniProt P10211 31-730)
Assay: Luminex multiplex assay on gB-1-conjugated microspheres
Procedure: The gB-1 binding of the antibodies was determined by Luminex multiplex assay. Mixtures of antigen (gB-1)-conjugated microspheres (1,000 counts each) were added to each well of 96-well filter plates (Millipore). […] Samples were diluted in PBS containing 1% cow milk, 1% BSA, 0.05% Tween 20 and 0.05% NaN₃. After washing, PE goat anti-mouse IgG was added to the plates and incubated for 1 hour at room temperature with mild agitation. After washing, microspheres were resuspended in PBS containing 1% BSA, 0.05% Tween 20 and 0.05% NaN₃ and fluorescent signals from each microsphere were measured in a Bio-Plex® 3D machine.

Row | Binder | binding result
1 | B1 | no binding
2 | B2 | no binding

Target: T1, glycoprotein B of HSV-1 (gB-1)
Assay: Luminex bead competition on gB-1; competitor BMPC-23 human IgG at 2 ng/ml

Row | Binder | percent inhibition at 222 ng/ml [%]
3 | B3 | 30
4 | B4 | > 90
5 | B5 | > 80
6 | B6 | > 95
